Ends that are not written are not given here.

Experimental findings from US8557777B2, “Methods for treating cancer using prostate specific antigen and tumor endothelial marker peptides” (The Board of Trustees of the University of Illinois, priority 2010, dated 2013) are described below.

The test system of series [1] is patients with CaP. The note with it: in vivo.
The test system of series [2] is patients with CaP. The series is described as follows: Toxicity graded by NIH Common Terminology Criteria for Adverse Events v3.0.
Series [3] is classed as physicochemical. As to the method:
Identified candidate peptides were synthesized (Protein Laboratory, Research Resources Facility, University of Illinois, Chicago) at greater than 95% purity, dissolved in dimethylsulphoxide (DMSO) at a concentration of 5 mg/ml and stored at −20° C. Peptides were tested for their ability to stabilize the expression of HLA-A2 on antigen-processing defective T2 cell line (ATCC, Manassas, Va.) as previously described [Xue et al., Prostate 1997; 30:73-78]. Briefly, 5×10^5 T2 cells in RPMI 1640 medium containing 10% fetal bovine serum (BioWhitaker, Walkersville, Md.) were incubated with varying amounts (1 to 80 ug/ml) of TEM8 peptide or control HIV-RT476-484 peptide, and cultured in 24 well plates for 18 hours at 37° C. HLA-A2 expression was visualized by direct staining with FITC conjugated MA2.1 antibody or an isotype control (BD Biosciences, San Diego, Calif.) followed by analysis on a FC500 flow cytometer (Beckman Coulter, Miami, Fla.).
TEM8 is known to share 60% sequence homology within the extracellular integrin-like-I domain region with another protein called capillary morphogenesis protein 2 (CMG2) that is widely expressed in normal tissues [Chen et al., J Biol. Chem. 2007 Mar. 30; 282(13):9834-45. Epub 2007 Jan 24]. […] Three remaining peptides were tested in T2 binding assays. […]

Series [4] addresses HLA-A2 (Homo sapiens, UniProt P04439, D140Y/D185E/D98H/E176V/E277Q/G131W/G231S/I119V/I121R/I166T/I218V/L300P/L318F/N151K/N90K/P208A/P217A/Q86G/Q94H/R138H/R169H/T345S). The series is described as follows: T2 binding assay: stabilization of HLA-A2 expression by TEM8 peptides. The note with it: for expression of HLA-A2 on T2 cells over baseline levels: baseline T2 + DMSO, TEM8 207-215 10 ug/ml, TEM8 298-306 40 ug/ml (FIG. 9).

The target in series [5] is T1, HLA-A201 (Homo sapiens, UniProt P04439, D140Y/D185E/D98H/E176V/E277Q/G131W/G231S/I119V/I121R/I166T/I218V/L300P/L318F/N151K/N90K/P208A/P217A/Q86G/Q94H/R138H/R169H/T345S).
T1 construct: stabilize the expression of HLA-A2 on antigen-processing defective T2 cell line; host or cells: T2 cells
The series is described as follows: Peptide-binding assay on T2 cells (PSA peptide). As to the method: The antigen-processing defective cell line, T2, was used to assay peptide binding to HLA-A201 as previously detailed [Xue et al., Prostate 30(2): 73-8 (1997)]. Briefly, T2 cells (5×10^5/well) were pulsed with PSA-peptide or DMSO at the designated concentration and cultured in 24-well plates overnight (18 hours) at 37° C. in 5% CO2 atmosphere. HLA-A2 expression was measured by flow cytometry using FITC conjugated anti HLA-A2 antibody (clone BB7.2) from BD Biosciences (San Diego, Calif.).

As for `CC(C)C[C@H](NC(=O)[C@H](CC(=O)O)NC(=O)[C@@H](NC(=O)[C@H](CS)NC(=O)[C@H](CCC(N)=O)NC(=O)[C@H](CC(C)C)NC(=O)[C@@H](N)CCCCN)C(C)C)C(=O)N[C@@H](Cc1c[nH]cn1)C(=O)N[C@H](C(=O)O)C(C)C` [PSA146-154 peptide], the “treatment related grade 3/4 toxicities” value in series [1] is recorded as “no treatment related grade 3/4 toxicities”. For the same compound, the late safety entry in series [2] (after six to eight years of monitoring) is “no late safety concerns or deleterious sequelae”. For the same compound, the “reactions at the site of injection” value in series [2] (all patients under protocol-1 (intradermal peptide + GM-CSF)) was “Mild pain, itching, and erythema with or without induration”.

With FLLLALALL [TEM8 331-339], the “solubility in DMSO” value in series [3] is recorded as “insoluble in DMSO”.

For “SMNDGLSFI [TEM8 298-306, 9-mer HLA-A0201 peptide of Tumor Endothelial Marker-8]”, in series [4], the T2 binding entry was “Yes” and the “expression of HLA-A2 on T2 cells over baseline levels” value (from here on “expression … over baseline levels”) is recorded as “showed enhanced expression of HLA-A2 over baseline levels”.

For “ALQGIIHSI [TEM8 207-215, 9-mer HLA-A0201 peptide of Tumor Endothelial Marker-8]”, in series [4], the T2 binding result is listed as “Yes” and the “expression … over baseline levels” value was “showed enhanced expression of HLA-A2 over baseline levels”. For the same compound, the “binding affinity in comparison to HIV-RT 476-484” value in series [4] (control HLA-0201 binding peptide) is on record as “greater binding affinity”.

“CALPERPSLYTKVVHYRKWIK [PSA210-230 peptide, long chain synthetic peptide corresponding to PSA residues 210-230]”: the HLA-A201 binding capacity result in series [5] is “binds with high affinity in a concentration dependent fashion”.

Turning to “TLNEKPFSV [TEM8 266-274, 9-mer HLA-A0201 peptide of Tumor Endothelial Marker-8]”, in series [4], the T2 binding result was “No” and the “expression … over baseline levels” value is “did not”.
